Source: publication PMC4329827 (Meta Gene, 2015)

Target: T1, MOCS2B wild-type, large subunit of MPT synthase (human, UniProt O96007 1-188)
T1 sequence (looked up): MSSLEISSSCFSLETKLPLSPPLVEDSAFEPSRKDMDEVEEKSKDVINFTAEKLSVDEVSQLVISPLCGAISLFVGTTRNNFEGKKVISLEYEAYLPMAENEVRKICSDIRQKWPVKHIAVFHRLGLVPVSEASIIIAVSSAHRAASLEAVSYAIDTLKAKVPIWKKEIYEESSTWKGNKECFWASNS
Experiment: ITC

B1: MOCS2A, small subunit of MPT synthase (activated, thiocarboxylated) (natural protein, human, UniProt O96033 1-88, looked up)
chain: MVPLCQVEVLYFAKSAEITGVRSETISVPQEIKALQLWKEIETRHPGLADVRNQIIFAVRQEYVELGDQLLVLQPGDEIAVIPPISGG
modifications: thiocarboxylated C-terminal tail
- Kd: 360 ± 47 nM
